Data from US20120052569A1.

Molecular target: monoclonal 2H5 antibody produced by rat-mouse hybridoma 2H5 (FERM BP-11245)
Assay: competitive elution of eTEV-GFPUV from 2H5 sepharose, peptide 0 to 1000 µg/mL, SDS gel

B1: eTEV peptide (free peptide used as competitive eluent) (peptide)
peptide: RENLYFQGKDG
peptide concentration giving complete competitive elution: 30 µg/mL
